Test results taken from the supplement of paper PMC10567573.
± gives the standard deviation.

Assay: protein stability index of a GFP-peptide fusion (GPS, HEK-293T) (PSI 1-6); higher = more stable
[1] = treatment: DMSO, c terminus: a fixed tail appended
[2] = treatment: MLN4924 1 uM, 8 h, c terminus: a fixed tail appended
[3] = treatment: DMSO, c terminus: native
[4] = treatment: MLN4924 1 uM, 8 h, c terminus: native
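Note: 24-mer peptide tiles fused after GFP, lentivirally expressed, FACS-sorted into six equal bins by GFP/DsRed ratio, decoded by Illumina sequencing, PSI is the read-weighted mean bin number.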

| Sequence | protein stability index [1] | protein stability index [2] | protein stability index [3] | protein stability index [4] |
| --- | --- | --- | --- | --- |
| PEEELDFFEILRLFFPVIYDVKYL [CNOT7] | 2.35 ± 0.51 | 2.47 ± 0.61 | – | – |
| TSFNHMDSDKLSGLWSRISHLVLP [TOR1AIP2] | 2.28 ± 0.2 | 2.33 ± 0.2 | – | – |
| KIRKPRTIYCSLQLQALNRRFQQT [DLX1] | 2.45 ± 0.78 | 1.95 ± 0.51 | – | – |
| QFRMAQEEARRNRLMRDMAQLRLQ [SMG5] | 2.95 ± 0.21 | 3.25 ± 0.26 | – | – |
| AFHVRRTNRVKECLAKGTFSDVTF [RHOBTB2] | 2.57 ± 0.24 | 2.78 ± 0.4 | – | – |
| GSRLCLYEDGTELTEDYFPSVPDN [DFFB] | 4.44 ± 0.44 | 4.66 ± 0.45 | – | – |
| SDLFDLMGSSQATMTSSQSMNFSM [CLINT1] | 2.42 ± 0.22 | 2.66 ± 0.24 | – | – |
| ELVPHPETAPTTVDRTHALMKKIG [CRYL1] | 4.31 ± 0.23 | 4.48 ± 0.35 | – | – |
| RGQARRLAPNFRWAIPNRQINDGM [BEX3] | 3.1 ± 0.24 | 3.03 ± 0.47 | – | – |
| RFLRMLLRLADEFGVAVVITNQVV [RAD51] | 2.46 ± 0.45 | 2.45 ± 0.84 | – | – |
| DQIEDMFEQGKWDVFSENLLADVK [STX11] | 3.75 ± 0.14 | 3.76 ± 0.3 | – | – |
| CMKIPTGQEYAAKIINTKKLSARD [CAMK2D] | 3.7 ± 0.69 | 3.83 ± 0.42 | – | – |
| LSRKLMQLQHEKAELEQHLEQEQE [CCDC6] | 5.27 ± 0.27 | 5.02 ± 0.2 | – | – |
| AFDYNSLSPTQRQKNFELAFTMAE [SMTNL2] | 2.76 ± 0.3 | 3.09 ± 0.29 | – | – |
| RILVGNRLHLAFKRQVPTEQARAY [RAB40C] | 2.29 ± 0.26 | 2.56 ± 0.27 | – | – |
| NVMTQSFGAVNLSSPSNMLPVRPQ [CLINT1] | 3.86 ± 0.2 | 3.99 ± 0.51 | – | – |
| ATADFADVADDFENYHKLRRSSSK [NETO1] | 4.99 ± 0.096 | 5.196 ± 0.05 | – | – |
| RDSAYQSITHYRPVSASRSSLDLS [EMD] | 3.41 ± 0.18 | 3.58 ± 0.22 | – | – |
| ALGPLRTPAPPLWIGLFLVATGSQ | 2.64 ± 0.57 | 2.27 ± 0.14 | – | – |
| GHKRKQPLPKRVAKVPRPPSTLLP [FOXJ1] | 4.02 ± 0.49 | 3.86 ± 0.041 | – | – |
| LVNPLDPRNADKIRVKIADLGNAC [SRPK2] | 2.92 ± 0.18 | 2.97 ± 0.22 | – | – |
| WGKRKNKPKMNYEKLSRGLRYYYD [ETS2] | 2.52 ± 0.26 | 2.51 ± 0.43 | – | – |
| ASDYSKKSNVLKLKTADWRVFLFQ [PSD2] | 2.12 ± 0.42 | 2.23 ± 0.19 | – | – |

| Sequence | protein stability index [1] | protein stability index [2] | protein stability index [3] | protein stability index [4] |
| --- | --- | --- | --- | --- |
| SRASAARVGQLQEALNERHSIINA [LRRC45] | 4.01 ± 0.38 | 3.97 ± 0.19 | – | – |
| QVADVPEKPRVPAFACQVAGCCQV [ZNF511] | 3.44 ± 0.16 | 3.61 ± 0.35 | – | – |
| EKVEVQLPELFHKIGVGAMTWSPL [KCNAB2] | 2.45 ± 0.26 | 2.51 ± 0.16 | – | – |
| KILVGNRLHLAFKRQVPREQAQAY [RAB40A] | 2.48 ± 0.11 | 2.56 ± 0.19 | – | – |
| QLLEDAILIIQGVLSDINLKKGES [NET1] | 3.37 ± 0.24 | 3.77 ± 0.19 | – | – |
| LASGPGKYMPHLCQDSSGEVSCQC | 3.99 ± 0.12 | 4.1 ± 0.27 | – | – |
| EREEITTKKRKLGKNPDVDTSFLP [FAM50A] | 4.63 ± 0.35 | 4.79 ± 0.24 | – | – |
| HITARIESDLTLESLSDEEIHPG [DRICH1] | – | – | 4.47 ± 0.23 | 4.38 ± 0.37 |
| TEGAFGLYRGLAPNFMKVIPAVSI [SLC25A25] | 1.88 ± 0.51 | 2.39 ± 0.66 | – | – |
| DQEMARDLVERALYSMECAFHPLF [TCF25] | 2.35 ± 0.34 | 2.09 ± 0.35 | – | – |
| AEVQAKLENAEVLELTVRRVQGVL [HES6] | 2.71 ± 0.38 | 2.58 ± 0.25 | – | – |
| LCALPVHVAVEHQLPPASRCVLVF [SOAT2] | 2.71 ± 0.6 | 2.71 ± 0.61 | – | – |
| LKALTRNVNRLNESFRDLQLRLLQ [SCARA5] | 2.37 ± 0.38 | 2.13 ± 0.46 | – | – |
| QVGRGLRYIHSMSLVHMDIKPSNI [WEE1] | 2.15 ± 0.3 | 2.08 ± 0.25 | – | – |
| PDCGKAFVSRYKLMRHMATHSPQK [PLAGL1] | 2.88 ± 0.24 | 3 ± 0.22 | – | – |
| MNYSEIESKVREATNDDPWGPSGQ [CLINT1] | 4.84 ± 0.22 | 4.96 ± 0.14 | – | – |
| QYSSHHTAEKRKRLGELFNPYYDP [CHGB] | 3.13 ± 0.25 | 3.28 ± 0.2 | – | – |
| GAPSPGSSDVSTAGTGASRSSHSS [ELF3] | 5.33 ± 0.29 | 5.32 ± 0.14 | – | – |
| RVKFRRQEANARERNRMHGLNDAL [NEUROD6] | 3.37 ± 0.18 | 3.43 ± 0.34 | – | – |
| VPSESEPPALQNNLLSPLLTGTES [NFE2L1] | 4.92 ± 0.1 | 5.07 ± 0.18 | – | – |
| PATGRSGPLPPPPPGAGGPPMPPP [WAS] | 4.74 ± 0.28 | 4.88 ± 0.22 | – | – |
| LEWNSLGTWDDAFATFCGGLAANG [LRRC45] | 2.52 ± 0.3 | 2.58 ± 0.31 | – | – |
| SLLAGTADGSLRMDDPKGDFITLY [M1AP] | 2.51 ± 0.22 | 2.44 ± 0.52 | – | – |

| Sequence | protein stability index [1] | protein stability index [2] | protein stability index [3] | protein stability index [4] |
| --- | --- | --- | --- | --- |
| AFYKEQLARLEERSSEFYRVTTEQ [CHCHD3] | 3.29 ± 0.12 | 3.38 ± 0.34 | – | – |
| LPEDDGLEQDLQQVMVSGPNLNET [ARFIP2] | 5.32 ± 0.32 | 5.43 ± 0.13 | – | – |
| LFDNPKLDKELRAMLREKFPEFCS [INTS3] | 2.03 ± 0.32 | 2.54 ± 0.31 | – | – |
| GLLQLDHRGLRCSWEGLAVLDSLL [RSAD1] | 2.31 ± 0.56 | 2.06 ± 0.31 | – | – |
| PSIYHTMASPCSAMAYHHDSRRIF [WDFY1] | 2.14 ± 0.72 | 2.18 ± 0.4 | – | – |
| YIPSYTSWYPSAHQEAMQQPQLM [DLX1] | – | – | 2.63 ± 0.36 | 2.44 ± 0.26 |
| SNYIFVAIFWIVFLLLIVFYTAIT [P2RY14] | 2.26 ± 0.26 | 2.1 ± 0.41 | – | – |
| ELVHFLLLKYRAREPVTKAEMLGS [MAGEA3] | 2.54 ± 0.63 | 2.73 ± 0.92 | – | – |
| STNGELNVDDPTGAHSNAPITAHA [CSNK1G1] | 5.39 ± 0.15 | 5.29 ± 0.33 | – | – |
| SALGPPPAASNSSDLFDLMGSSQA [CLINT1] | 4.7 ± 0.22 | 4.49 ± 0.2 | – | – |
| RAKDLVELDPEVEGTKPSATEMIW [GOLPH3L] | 4.07 ± 0.23 | 4.13 ± 0.45 | – | – |
| SPEALSLGEVAYHDYHGILVDEEE [ADD1] | 5.58 ± 0.27 | 5.54 ± 0.13 | – | – |
| GSARYDFSHEILRDEESFFGERRI [ALKBH7] | 3.75 ± 0.29 | 3.71 ± 0.5 | – | – |
| MTAPAGPRGSETERLLTPNPGYGT [MCOLN1] | 4.23 ± 0.22 | 4.2 ± 0.42 | – | – |
| NISGLRFETQLKTLCQFPETLLGD [KCNA3] | 2.89 ± 0.26 | 3.03 ± 0.23 | – | – |
| ERAKELYSSGEFSSGRKWGDDAPK [INTS4] | 4.77 ± 0.33 | 4.66 ± 0.14 | – | – |
| QLSPNKHFSLRVQSRANGVKYPEL [PCDHGA10] | 3 ± 0.18 | 3.02 ± 0.23 | – | – |
| LKTADWRVFLFQAPSKEEMLSWIL [PSD2] | 2.16 ± 0.57 | 2.04 ± 0.38 | – | – |
| FKISGMNGIHVCMVFEVLGHHLLK [SRPK2] | 3.01 ± 0.34 | 2.92 ± 0.31 | – | – |
| SEFLKRFVEATRKWKVGIPSDPLV [ALDH8A1] | 2.53 ± 0.85 | 2.05 ± 0.2 | – | – |
| EEEEEATNTHPPASLPSQKYPGPQ [CHGA] | 5.61 ± 0.16 | 5.54 ± 0.17 | – | – |
| QIYHCTKRKEEECSTTDHPYKKPY [TBX5] | 3.92 ± 0.095 | 4.25 ± 0.26 | – | – |
| SIFGICMVFSGLCPLLLGSVMAIE [PTGFR] | 3.36 ± 0.43 | 3.09 ± 0.84 | – | – |

| Sequence | protein stability index [1] | protein stability index [2] | protein stability index [3] | protein stability index [4] |
| --- | --- | --- | --- | --- |
| DTLISQESCEKNDPLSLLDDSKFP [PCDHGA10] | 5.05 ± 0.18 | 4.93 ± 0.2 | – | – |
| AWLNEHRKNPYPTKGEKIMLAIIT [IRX6] | 2.7 ± 0.42 | 2.51 ± 0.41 | – | – |
| TYHVGKQCFFNGVFLGNKRSLSER [SPATS1] | 2.36 ± 0.21 | 2.59 ± 0.22 | – | – |
| ALAPKQELPSALESHEVPGTLSMG [ZNF24] | 4.59 ± 0.25 | 4.75 ± 0.3 | – | – |
| ELRDISSMAMEYFDEKIVPILKRK [FBXO28] | 2.78 ± 0.36 | 3 ± 0.45 | – | – |
| AQTFIALCATDFKFAMYPPSMIAT [CCND2] | 2.75 ± 0.71 | 3.04 ± 0.62 | – | – |
| QAMFDTLGIPKSTTSDIPHMLNQV [FAM98B] | 3.18 ± 0.23 | 3.23 ± 0.26 | – | – |
| GKYDSGIPPYSRASLKGYQWLKDK [KCNAB2] | 3.26 ± 0.073 | 3.23 ± 0.24 | – | – |
| FEEPEDPSNRSFFSEIISSISDVK [PPP2R2B] | 4.09 ± 0.18 | 4.32 ± 0.15 | – | – |
| IENIQRVAAGVLCELAQDKEAAEA [CTNNB1] | 5.08 ± 0.11 | 5.1 ± 0.48 | – | – |
| KAGLENSLAETECRYATQLQQIQG [KRT15] | 3.92 ± 0.049 | 4 ± 0.3 | – | – |
| EIDSVPKTQSELASESEHIPKPQS [MIA2] | 5.42 ± 0.26 | 5.49 ± 0.2 | – | – |
| EPVAEIGVGAYGTVYKARDPHSGH [CDK4] | 4.11 ± 0.32 | 4.1 ± 0.28 | – | – |
| LFSLMVVNRLTEELGCDEIIDRE [EID1] | – | – | 3 ± 1.1 | 2.37 ± 0.48 |
| SYLDKVRALEEANTELEVKIRDWY [KRT17] | 2.97 ± 0.23 | 3.07 ± 0.32 | – | – |
| SLNLSTEFISSTKRPYAKELETVD [SERPINB5] | 3.69 ± 0.14 | 3.82 ± 0.21 | – | – |
| DGLPDLGHAQDLMDGLPPGDSNQL [CTNNB1] | 5.33 ± 0.26 | 5.4 ± 0.19 | – | – |
| LDPSFPVEFVRHGDIIRLEHKETS [POMT2] | 5.71 ± 0.17 | 5.59 ± 0.25 | – | – |
| PCELPCKEYDVARNTGAYTSSGLA [TEKT4] | 4.18 ± 0.19 | 4.23 ± 0.13 | – | – |
| LKVTGKPDAETLKVMKQPRCGVPD [MMP1] | 4.47 ± 0.3 | 4.49 ± 0.15 | – | – |
